This is an account of results in the nanobody polyreactivity screen of Harvey et al. (2022).

The nature of the data set: yeast display, Sf9 membrane polyspecificity reagent, FACS + sequencing; frameworks hold sequencing errors. In a few lines:
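Polyreactivity labels are assigned by the sorting gate from which each nanobody was recovered. The gates were low and high (top ~1%), set on anti-HA fluorescence for expression and streptavidin fluorescence for reagent binding. Before sorting, galactose-induced (36–48 hours) yeast display cells were stained for 1 hour at 4 °C with 10% biotinylated, detergent-solubilized Sf9 membrane reagent.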
Take “QVQLVESGGGLVQAGGSLRLSCAASGRTFTQYAMGWYRQAPGKEREFVAAINFSGSRTYYADSVKGRFTISRDNAKNTVYLQMNSLKPEDTAVYYCNKRGSVYTSSQRQHDYWGQGTQVTVSS”: the “polyreactivity (PSR sort gate)” value is on record as “low polyreactivity”. On to “QVQLVESGGGLVQAGGSLRLSCAASGRTFTQYAMGWYRQAPGKERELVAAISWRGGSTYYADSVKGRFTISRDNAKNTVYLQMNSLKPEDTAVYYCAKRYFRGYPLYDYWGQGTQVTVSS”, for which the “polyreactivity (PSR sort gate)” value was “high polyreactivity”. Take “QVQLVESGGGLVQAGGSLRLSCAASGRTFTRYAMGWYRQAPGKERELVAAISRGGNTNYADSVKGLFTISRDNAKNTVYLQMNSLKPEDTAVYYCARVYGGYSVPSAYGSWGQGTQVTVSS”: the “polyreactivity (PSR sort gate)” value is reported as “high polyreactivity”.

Consider “QVQLVESGGGLVQAGGSLRLSCAASGRTFTSYAMGWYRQAPGKERELVAAISSSGSSTYYADSVKGRFTISRDNAKNTVYLQMNSLKPEDTAVYYCAVGGSFRYRVQYDYWGQGTQVTVSS”, for which the “polyreactivity (PSR sort gate)” value is given as “high polyreactivity”. With “QVQLVESGGGLVQAGGSLRLSCAASGRTFTSYVMGWYRQAPGKERELVAAISWSGDSTYYADSVKGRFTISRDNAKNTVYLQMNSLKPEDTAVDYCARVPPAAYVAYDYWGQGTQVTVSS”, the “polyreactivity (PSR sort gate)” value is “high polyreactivity”. As for “QVQLVESGGGLVQAGGSLRLSCAASGRTFTVYAMGWYRQAPGKEREFVATISRSGGSTYYADSVKGRFTISRDNAKNTVYLQMNSLKPEDTAVYYCAARRSGRKYDYWGQGTQVTVSS”, the “polyreactivity (PSR sort gate)” value is recorded as “high polyreactivity”. In the case of “QVQLVESGGGLVQAGGSLRLSCAASGRTFTWYAMGWYRQAPGKERELVAAITNGGRRYADSVKGRFTISRDNAKTTVYLQMNSLKPEDTAVYYCATQPLTWSSYRWDWRAQFDHWGQGTQVTVSS” it was “low polyreactivity”. As for “QVQLVESGGGLVQAGGSLRLSCAASGRTFTYNAMGWYRQAPGKDRELVARISFSGSSTYYADSVKGRFTISRDNAKNTVYLQMNSLKPEDTAVYYCATEAPYYIGGRYRYQRYDYWGQGTQVTVSS”, the “polyreactivity (PSR sort gate)” value is “high polyreactivity”. In the case of “QVQLVESGGGLVQAGGSLRLSCAASGRTFTYNMGWYRQAPGKERELVAANDLRRLCEGALHNFTRQCDEYRLFTDEQPETGRYPVYYCNADPAWIWYTFDYWGQGTQVTVSS” it was “low polyreactivity”. With “QVQLVESGGGLVQAGGSLRLSCAASGRTFTYYAMGWYIQAPGKEREFVASISLSGGRTYYADSVKGRFTISRDNAKNTVYLQMNSLKPEDTAVYYCNAYYPRVDRYDYWGQGTQVTVSS”, the “polyreactivity (PSR sort gate)” value is given as “low polyreactivity”. Take “QVQLVESGGGLVQAGGSLRLSCAASGRTFTYYAMGWYRPAPGKERELVASISTTGRTYYADSVKGRFTISRDNAKNTVYLQMNSLKPEDTAVYYCATRSRYYYDYWGQGTQVTVSS”: the “polyreactivity (PSR sort gate)” value is reported as “high polyreactivity”. Turning to “QVQLVESGGGLVQAGGSLRLSCAASGRTFTYYAMGWYRQAPGKQRELVASINQNGGDTYYADSVKGRFTLSRDNAKNTDYLQMNSLKPADTAVYYCAAEAGYYVQTVAVDMGYWGQGTQVTVSS”, the “polyreactivity (PSR sort gate)” value is reported as “low polyreactivity”.

On to “QVQLVESGGGLVQAGGSLRLSCAASGRTFVANAMGLYRQAPGKERELVAAISSSGGSTYYADSVKGRFTISRDYAKNTVYLQMNSLKPEDTAVYYCNRVGVYYRLYPYYYWGQGTQVTVSS”, for which the “polyreactivity (PSR sort gate)” value was “high polyreactivity”. As for “QVQLVESGGGLVQAGGSLRLSCAASGRTFVDNAMGWYRQAPGKKRELVATISSGDSTTYADSVKGRFTISRDNAKNTVYLQMNSLKPEDTAVYYCAAAYGWSWYRYDYWGQGTQVTVSS”, the “polyreactivity (PSR sort gate)” value is reported as “high polyreactivity”. Consider “QVQLVESGGGLVQAGGSLRLSCAASGRTFVFNAMGWYRQAPGKERELVAAITISGGSTYYADSVKGRFTISRDNAKNTVYLQMNSLKPEDTAVYYCNADSKIEVFSYIYDYWGQGTQVTVSS”, for which the “polyreactivity (PSR sort gate)” value is given as “high polyreactivity”. On to “QVQLVESGGGLVQAGGSLRLSCAASGRTFVFNTMGWYRQAPGKERELVADISRGDSTNYADSVKGRFTISRDNAKNTVYLQMNSLKPEDTAVYYCAAKWRWSGSILYRYGYGYWGQGTQVTVSS”, for which the “polyreactivity (PSR sort gate)” value is “high polyreactivity”. On to “QVQLVESGGGLVQAGGSLRLSCAASGRTFVFYAMGWYRPAPGKERELVADITWSDGNTYYADSVKGRFTISRDNAKNSVYLQMKSLKPEDTAVYYCAKVRTGQSRSVGYDYWGQGTQVTGSS”, for which the “polyreactivity (PSR sort gate)” value is listed as “low polyreactivity”. Take “QVQLVESGGGLVQAGGSLRLSCAASGRTFVFYAMGWYRQAPGKERELVAAITSSGGRTYYADSVKGRFTISRDNAKNTVYLQMNSLKPEDTAFYYCAAPYYPYKYDYWGQGTQVTVSS”: the “polyreactivity (PSR sort gate)” value is given as “low polyreactivity”. Take “QVQLVESGGGLVQAGGSLRLSCAASGRTFVGNAMGWYRQAPGKERELVAAITVNGVRTYYADSVKGRFTSSRDNAKNTVYLQMNSLKPEATAVYYCARDALHYAGSLHRYGYWGQGTQVTVSS”: the “polyreactivity (PSR sort gate)” value is “low polyreactivity”. “QVQLVESGGGLVQAGGSLRLSCAASGRTFVGNTMGWYRQAPGKERELVAAISSGGRTYYADSVKGRFTISRDNAKNTVYLQMNSLKPEDTAVYYCAARRRGKVVPTSQFDYWGQGTQVTVSS”: the “polyreactivity (PSR sort gate)” value is listed as “high polyreactivity”.

With “QVQLVESGGGLVQAGGSLRLSCAASGRTFVGYAMGWYRQAPGKERELLAAISKSGGRTYYADSVKGRFTISRDNAKNTVFLQMNSLKPDDTAVYYCNAVVVYYVDAGRYDYWGQGTQVTVSS”, the “polyreactivity (PSR sort gate)” value is “high polyreactivity”.

Take “QVQLVESGGGLVQAGGSLRLSCAASGRTFVGYAMGWYRQAPGKERELVAAITSGGGTYYADSVKGRFTISRDNAKNTVYLQMNSLKPEDTAVYYCNRASRRGYYYPYNYWGQGTQVTVSS”: the “polyreactivity (PSR sort gate)” value was “high polyreactivity”. Turning to “QVQLVESGGGLVQAGGSLRLSCAASGRTFVGYAMGWYRQAPGKERELVAVISGRGGSTYYADSVKGRFTISRDNAKNTVYLQMNSLKPEDTAVYYCAAYVARKWTSGYWGQGTQVTVSS”, the “polyreactivity (PSR sort gate)” value is reported as “high polyreactivity”. As for “QVQLVESGGGLVQAGGSLRLSCAASGRTFVGYVMGWYRQAPGKERELVAAISKIGGRTYYADSVKGRFTISRDNAKNTVYLQMNSLKTEDTAVYYCAAERTKSIKLPRPGSMDYWGQGTQVTVSS”, the “polyreactivity (PSR sort gate)” value is listed as “low polyreactivity”. Consider “QVQLVESGGGLVQAGGSLRLSCAASGRTFVIYTMGWYRQAPGKERELVAAITQRGGITYYADSVKGRFTISRDNAKNTVYLQMNSLKPEDTAVYYCNSGRTYRRLGDYWGQGTQVTVSS”, for which the “polyreactivity (PSR sort gate)” value is given as “high polyreactivity”.

In the case of “QVQLVESGGGLVQAGGSLRLSCAASGRTFVNYVMGWYRQAPGKEREFVAAISRNGGSTYYADSVKGRFTISRDNAKNTVYLQMNSLKPEDTAVYYCAARVYWRYNYWGQGTQVTVSS”, the “polyreactivity (PSR sort gate)” value is reported as “high polyreactivity”. In the case of “QVQLVESGGGLVQAGGSLRLSCAASGRTFVPYAMGWYRQAPGKERELVATITSAGSTYYADSVKGRFTISRDNAKNTVYLQMNSLKPEDTAVYYCNARYYSRRWPYDYWGQGTQVTVSS” it was “high polyreactivity”. As for “QVQLVESGGGLVQAGGSLRLSCAASGRTFVQYAMGWYRQAPGKERELVARITSVRSTNYADSVKGRFTISRDNAKNTVYLQLNSLKPEDTAVFYCAAPTVVYRSYYYWGQGTQVTVSS”, the “polyreactivity (PSR sort gate)” value is “high polyreactivity”. For “QVQLVESGGGLVQAGGSLRLSCAASGRTFVRNAMAWYRQAPGKERELVAAITYGGGNTYYADSVKGRFTISRDNAKNTVYLQMNSLKPEDTAVYYCAKRRLYWSGQGWVRTYGYWGQGTQVTVSS”, the “polyreactivity (PSR sort gate)” value is “high polyreactivity”. In the case of “QVQLVESGGGLVQAGGSLRLSCAASGRTFVRNAMGWYRQAPGKERELVAGITRSGGSTYYADSVKGRFTISRDNAKNTVYLQMNSLKPEDTAVYYCAKRYDVYVGTVRPYDYWGQGTQVTVSS” it was “low polyreactivity”; in that of “QVQLVESGGGLVQAGGSLRLSCAASGRTFVRNAMGWYRQAPGKERELVASITSGGSTYYADSVKGRFTISRDNAKNTVYLQMNSLKAEDTAVYYCAKRTYTPVYGYYYWGQGTQVTVSS”, “high polyreactivity”; in that of “QVQLVESGGGLVQAGGSLRLSCAASGRTFVRYALGWYRQAPGKERELVAAISWNDNSTYYADSVKGRFTISRDNAKNTVYLQMNSLKPEDTAVYYCATRVLTQQPGYQAYIFPEFDYWGQGTQVTVSS”, “low polyreactivity”. For “QVQLVESGGGLVQAGGSLRLSCAASGRTFVRYAMGWYRQAHGKERELVAAIDSSGGRTYYADSVKGRFTISRDNAKNTVYLQMNSLKPEDTAVYYCNARRLASYRGYSWGQGTQVTVSS” the value was “high polyreactivity”; for “QVQLVESGGGLVQAGGSLRLSCAASGRTFVRYAMGWYRQAPAKERELVAVNSRRGGSTYYADSVKGRFTISRDNAKNTVYLQMNSLKPVDTAVYYFAADYVRSKYDYWGQGTQVTVSS”, “high polyreactivity”. As for “QVQLVESGGGLVQAGGSLRLSCAASGRTFVRYAMGWYRQAPGKERELVAAISGDGASTYYADSVKGRFTISRDNAKNTVYLQMNSLKPEDTAVYYCNARSIRRYYYPDYDYWGQGTQVTVSS”, the “polyreactivity (PSR sort gate)” value is “high polyreactivity”. Turning to “QVQLVESGGGLVQAGGSLRLSCAASGRTFVSNTMGWYRQAPGKERELVAAINYSVASTNYADSVKGRFTISRDNAKNTVYLQMNSLKPEDTAVYYCNRASAGWGQGTQVTVSS”, the “polyreactivity (PSR sort gate)” value is given as “low polyreactivity”.

Regarding “QVQLVESGGGLVQAGGSLRLSCAASGRTFVSYAMGWYRQAPGKETELVAAIDSSGTSTYYADSVKGRFTISRDNAKNTVYLQMNSLKPEDTAVYYCAKAWPDHWYSRYDYWGQGTQVTVSS”, the “polyreactivity (PSR sort gate)” value is recorded as “low polyreactivity”. Regarding “QVQLVESGGGLVQAGGSLRLSCAASGRTFVSYVMGWYRQAPGKERELVAAIRRRGGRTYYADSVKGRFTISRDNAKNTVYLQMNSLKPEDTAVYYCAAAQPGTNAYRVGSWGQGTQVTVSS”, the “polyreactivity (PSR sort gate)” value is listed as “high polyreactivity”. On to “QVQLVESGGGLVQAGGSLRLSCAASGRTFVTNAMGWYRQAPGKERELVAAISSNGGSTYYADSVKGRFTISRDNAKNTVYLQMNSLKPEDTAVYYCNAEGQPLYVSWHDHRYIYGFDYWGQGTQVTVSS”, for which the “polyreactivity (PSR sort gate)” value is listed as “low polyreactivity”.

With “QVQLVESGGGLVQAGGSLRLSCAASGRTFVTNAMGWYRQAPGKERELVAAISSSGGSTYYADSVKGRFTISRDNAKNTVYLQMNSLKPEDTAVYYCAVGGQTKGQYDYWGQVTQVTVSS”, the “polyreactivity (PSR sort gate)” value is “low polyreactivity”. Take “QVQLVESGGGLVQAGGSLRLSCAASGRTFVTNAMGWYRQAPGKERELVAAISYSGGSTTYADSVKGRFTISRDNAKNTVYLQMNSLKPEDTAVYYCNAQEDLVPKLRYYPPSDYWGQGTQVTVSS”: the “polyreactivity (PSR sort gate)” value is “low polyreactivity”.
